{"source": "patent US20210137911A1", "about": "“NOVEL CHRONOTHERAPY BASED ON CIRCADIAN RHYTHMS” (THE TRUSTEES OF THE UNIVERSITY OF PENNSYLVANIA, priority 2014, published 2021)", "origin": "cited, not measured here", "molecules": {"B1": {"name": "Tenecteplase (protein, UniProt P00750 36-562, looked up, variant T103N N117Q K296A H297A R298A R299A)", "Tissue-type plasminogen …": "SYQVICRDEKTQMIYQQHQSWLRPVLRSNRVEYCWCNSGRAQCHSVPVKSCSEPRCFNGGTCQQALYFSDFVCQCPEGFAGKCCEIDTRATCYEDQGISYRGNWSTAESGAECTNWQSSALAQKPYSGRRPDAIRLGLGNHNYCRNPDRDSKPWCYVFKAGKYSSEFCSTPACSEGNSDCYFGNGSAYRGTHSLTESGASCLPWNSMILIGKVYTAQNPSAQALGLGKHNYCRNPDGDAKPWCHVLKNRRLTWEYCDVPSCSTCGLRQYSQPQFRIKGGLFADIASHPWQAAIFAAAAASPGERFLCGGILISSCWILSAAHCFQERFPPHHLTVILGRTYRVVPGEEEQKFEVEKYIVHKEFDDDTYDNDIALLQLKSDSSRCAQESSVVRTVCLPPADLQLPDWTECELSGYGKHEALSPFYSERLKEAHVRLYPSSRCTSQHLLNRTVTDNMLCAGDTRSGGPQANLHDACQGDSGGPLVCLNDGRMTLVGIISWGLGCGQKDVPGVYTKVTNYLDWIRDNMRP"}, "B2": {"name": "Filgrastim (protein, chains of the INN, looked up)", "chain": "MTPLGPASSLPQSFLLKCLEQVRKIQGDGAALQEKLCATYKLCHPEELVLLGHSLGIPWAPLSSCPSQALQLAGCLSQLHSGLFLYQGLLQALEGISPELGPTLDTLQLDVADFATTIWQQMEELGMAPALQPTQGAMPAFASAFQRRAGGVLVASHLQSFLEVSYRVLRHLAQP", "modifications": "N-terminal methionine"}, "B3": {"name": "Idursulfase (protein, UniProt P22304 34-455; P22304 456-550, looked up)", "Iduronate 2-sulfatase 42 kDa …": "TDALNVLLIIVDDLRPSLGCYGDKLVRSPNIDQLASHSLLFQNAFAQQAVCAPSRVSFLTGRRPDTTRLYDFNSYWRVHAGNFSTIPQYFKENGYVTMSVGKVFHPGISSNHTDDSPYSWSFPPYHPSSEKYENTKTCRGPDGELHANLLCPVDVLDVPEGTLPDKQSTEQAIQLLEKMKTSASPFFLAVGYHKPHIPFRYPKEFQKLYPLENITLAPDPEVPDGLPPVAYNPWMDIRQREDVQALNISVPYGPIPVDFQRKIRQSYFASVSYLDTQVGRLLSALDDLQLANSTIIAFTSDHGWALGEHGEWAKYSNFDVATHVPLIFYVPGRTASLPEAGEKLFPYLDPFDSASQLMEPGRQSMDLVELVSLFPTLAGLAGLQVPPRCPVPSFHVELCREGKNLLKHFRFRDLEEDPYLPG", "Iduronate 2-sulfatase 14 kDa …": "NPRELIAYSQYPRPSDIPQWNSDKPSLKDIKIMGYSIRTIDYRYTVWVGFNPDEFLANFSDIHAGELYFVDSDPLQDHNMYNDSQGGDLFQLLMP"}}, "data": [{"conditions": "in vivo", "units": {"½ Life": "h"}, "values": [{"molecule": "B1", "½ Life": 1.9}, {"molecule": "B2", "½ Life": 3.5}, {"molecule": "B3", "½ Life": 0.733}]}]}
